{"source": "the DeepSol protein solubility set"}
{"assay": "soluble on expression in E. coli; label from the status in PepcDB or PDB records"}
{"sequence": "MGSDKIHHHHHHMPVNIKQLAQEFDKKEIGITQGHRLCPGCGAPITVKFVMMIARHLGYEPVVGLATGCLEVSTSIYPYTAWSVPYIHNAFENVAATMSGVETAYKALKNKGKIPEDKKYAFIAFGGDGGTYDIGLQSLSGMLERGHKVLYVLYDNEGYMNTGNQRSGSTPPGSDTTTAPVGKKLPGKVQLKKNIVEIVAAHENVYAATASLSEPMDFFAKVEKALNFDGPSFLAVFSPCVRFWRVNDDKTVEISKLAVETKYWPLYEVERGVYRVTRKPRQFKPVEEFLKAQGRFRKLLSRPDAKEIVDELQEYVDRRWERLLTLEEVTKDKPIR", "soluble on expression in E. coli": "not soluble"}
{"sequence": "MFHCKGLYMSDQNDKLKNLKTSSMDRRLSIAKASLLAGTRWATASATSMFSSEAEKEKKRKKAMTEQANYLVSEIGKLKGSIVKIGQMMALYGEHFLPEEITQALNTLNNQTVALAWPAIKAHLQEQLGSKLDDLIIDHEPIGTASLAQVHRATRKSDGLELVLKIQYPGVAEAIDSDMSLFKNMLKLTRMVPQTREFDQWFDEVREMMHREVSYDIEAATTRRFAERLKTDPRYAVPQIIDAYCTTKILCMTFERGVPINSPVMLSLPQERRNKLGEASLEIAVREIFEWGEMQTDPNFGNYLVRLGNGTDIQDKIVLLDFGAIRQFDEHLLSVARNLIRAGYNHSNEEMVRAMTGYSFFDSIPESIKPDMAKVFLLATEAFSCPENNPDMPTGLMDEDNRYDWKKSQLHSRVMQQASKSMASRYFSVPPKEFMFISRKFIGAYTFMTVIEAKTNVRRMISHFVKLEHHHHHH", "soluble on expression in E. coli": "not soluble"}
{"sequence": "MTTALYLEDAYKTSCETEVIKVEGNKVFVKETVFYPTGGGQECDTGVIVQDGSVFEVEKVKKEQGEIVHYIKDEAQVKLGPVKLEINWERRHNLMRHHSLLHLIGAVVYEKYGALCTGNQIYPDKARIDFNELQELSSVEVEEIVEEVNKLIKQNKEISTRYMSREEAENAVGMIKTAINLLPTTIQEIRIVTIENLDEQACGGTHVKNTSEIGTLVIDKVKSKGKQNRRFEVRAI", "soluble on expression in E. coli": "not soluble"}
{"sequence": "MGSDKIHHHHHHMVEIINPFDGGGYSLAEMTQAINILPNLYTRLGQMGLFRFEGVTQRSVIIEQAEGVLNLLPTVPLGGPATVANRDARSMRSFTVPWIPHDDSITPQDVQGVRGFGVADAADPLATVMERKLTRMRTKHAQTREFMEINALRGIVRDGSGSTLYDYFAEFGLVRQQVDFALGTAATNVQAKIREVLRLVEVELKGETMTSVTALVSPAFFDKLISHPKVESAYQYFSSTGAQPLREDVRRRFPFAGMVFEEYNATVTLATGSNETLVPAGEGIAFPLGTTDTFVTYGAPANLIETVNTMGLPMYARQLARQDGSAIDVKTEASILPVNKRPRLAVRIFSGN", "soluble on expression in E. coli": "not soluble"}
{"sequence": "MAHHHHHHMNKTKIESSYFTYQNNHSKIGNPILYKGEVIGMEIIDIRVKDDVEGLFNVCSCYLDNEHHAYNKCSESDIHYMQISSIRIIIKIVHNINILTGKKLHINLQDYVTPYPIKSAFIIKKVEHYSCNNINNKSFNEIQEHFYNNEKKLKFYNIFLYETDLQEFKEDIIFENPGMYLLCYTSNDSQSEYSAELSTILVNGNY", "soluble on expression in E. coli": "not soluble"}
{"sequence": "MSVSSRGAASPAHRTAPTKWLFTKEEMKKTASIQEGMSREEELASRQMAAAFIQEMIDGLNNVKDPKMKIGHTGLCVAHTHMHRFYYLHSFKKYDYRDVGAACVFLAGKSQECPRKLSHVISVWRERKDRKQLTTETARNEAAQIIVLLESMILQTIAFDLNVHLPHIYVLDIMKKVDKKEHYRPLTSCAYYFATDVIAVTDWSLRYSAASMSIVIIHLMAAYANVRIERLFADFINEDSPWYAKFDETMTNEKLREMEVDFLVTYRNSCQFHHASKFNFREHRPMLENPDVRKLDRTRDARSHSPMVHHVPDSTVNVRPRAYVPRDELTVERLNKERGVEEERRKRERDRMAGKLDSSTSSEKRARIDPLANNFVSSSSSSNGKLAPPPIPPQLNFPPPPIVSSGYNHKNQINRKNHENNHTNSSVSPAFVPSARTFDVAPMLTPPTAPKLQSADNSDMDLEDGELE", "soluble on expression in E. coli": "not soluble"}
{"sequence": "MTNIERLERCADIMRRRWIYDPEAGLLFSRETKDVIKGSMTNKGHLVVTVHEGKFKVTLTYQKACYVYTYGAYDETLYEVHHVNLNKQDNRIKNIRLMPKEKHRRIHKNVRKLIRLGHTQWLQPQLIEQSL", "soluble on expression in E. coli": "not soluble"}
{"sequence": "MGSDKIHHHHHHMRVSQRVVMSMTTPIDQFKGKQLDIINWWRRYPDKQTIIADGAVRSGKTFAMSISYVLWSMIVFDREQFGIAGKTIGSLRRNVIRPLKQTLQQVGFSVVDRRSENMLEISLDGRTNLYYLFGGKDESSQDLIQGITLAGMFFDEAALMPQSFVNQATARVSVTGGKYWFNMNPEGPYHWFKTDWIDQADDKRALRLHFVMTDNPSLSDEVIDRYEHMYSGVFYQRYILGQWVLADGIVYDNFDKDEMVSNPSQQPSRYYVSVDYGTQNPTVFLLWGKCGSVWYCLKEYYYDGRHSSRQKTDDEYARDFSQFVGDIRCEVIVDPSAASFIVKLRERRYRVIKADNDVLNGIRETQTAMNSGEIKFTPGLTNLFKEFASYVWDDKASQKGEDKVVKAHDHAMDAMRYFVMQVIKRRNAAHTFKNTSKYF", "soluble on expression in E. coli": "not soluble"}
{"sequence": "MERYGYCIFCDDIRTEAGGKLSFIGCYNSAMFVTNEFPLSLPKLCVHFNVFSPADQPYKSLRVRCYLPGEDKPIAEESIEVPALQDQINLLTSLPKDQPMMPFIVVAASLIFSPCEIKSPGMIHVRAVINDSPTELHLGSLAVSSQATPQVALEHGPAAIN", "soluble on expression in E. coli": "not soluble"}
{"sequence": "MPGPILKKCFNCRVALPEDAINTAQCQKCQKNEAKYGKPGTCQYCKLNAAFHDQKCVWCSHAERKFGNPFPCANCKLSCAFPRRESDKVEGAALLCRLCILQARHTNQTVVAGIPVPPEKPERSGEGSSTEQRDRDHRQHRPTSHHHRDHKDHHRRDDKHHHRDSNHRHAHKRRHQEEPNNNSNNGTSSSGGAPPLVPNNENGNGFPPFGDRDPGESMVKQQKMEDEIRRLKTLLAEKDQLIFDKDKQISNLKADQYNLDKKHRERVQQLIKEKEDSIRAIEQMRNSKSSKRN", "soluble on expression in E. coli": "not soluble"}
{"sequence": "MSETIFGKILTGEIPSFKVYEDDYVYAFLDISQVTKGHTLLIPKKASANIFETDEETMKHIGAALPKVANAIKRAFNPDGLNIIQNNGEFADQSVFHIHFHLIPRYENDIDGFGYKWETHEDILDNDAKQQIAEQIQAQF", "soluble on expression in E. coli": "not soluble"}
{"sequence": "MSQVLTTYETPVLPEWVDYNGHLRDAFYLLVFSYATDALMAHIGLDSQNRDASGHSLFTLECHLNFLHEVKEGARVEVRTQLLGHDRKRLHIHHALYLPGSGQALALSEQMLLHVSLDGPRSAPFEGEVLARVEALAEAHRALPVPEGVGRVIGLPPVR", "soluble on expression in E. coli": "not soluble"}
{"sequence": "MKYDDTINIAFFGLDRRQKTDISRSDSIMILTMDPTHKKLKLSSIMRDTYVNVDGHGMTKITHAYAYGGPQLAIKTINENFNLNIKDYVTVDFYGLEKIIDKLNGVEVDVQPDEVNYLNSYIDEVSKYEKVTPNHVSSAGKQLLDGRQAVAYSRIRYTAGGDFQRTERQRTVLMAVFNKMKAQGKSNMLSMMDELLPYAETDLGSLDIAKYGAKFLSSNIDSIDQERFPVDGYCSGITVDNVWYLKTDLGVTSDQMKKYIFEDVKPTPKASLVNIPAKLEHHHHHH", "soluble on expression in E. coli": "soluble"}
{"sequence": "MGSDKIHHHHHHMKISICGKGGCGKSSITTLLAKEFAKKGHNVLVIDGDESNLSLHKLLGMDLPKDFIEYLGGRKEFMKKLREKMDGKEVELFEGEISIDSLPKEYLVEKDNIKLLAIGKIHDFGEGCACPMGALLREFLKSLKLKDKEVVIVDTEAGIEHFGRGVEGGCDVIIAIIDPTYESIRLSKKIEEIGEKLGKKVYFIVNKVDDETKDLILENVNKDKVIAVIPNNKEIMKCGLMGEELNAELSEIKDVVEILTK", "soluble on expression in E. coli": "not soluble"}
{"sequence": "GMTTWKELTDNNPAHSENYAQRWRNLAAAGNDIYGEARLIDAMAPRGAKILDAGCGQGRIGGYLSKQGHDVLGTDLDPILIDYAKQDFPEARWVVGDLSVDQISETDFDLIVSAGNVMGFLAEDGREPALANIHRALGADGRAVIGFGAGRGWVFGDFLEVAERVGLELENAFESWDLKPFVQGSEFLVAVFTKK", "soluble on expression in E. coli": "soluble"}
{"sequence": "MGMAAESQFHVLAVDDSLFDRKLIERLLQKSSCQVTTVDSGSKALEFLGLRQSTDSNDPNAFSKAPVNHQVVEVNLIITDYCMPGMTGYDLLKKVKESSAFRDIPVVIMSSENVPARISRCLEEGAEEFFLKPVRLADLNKLKPHMMKTKLKNQKLEEIETTSKVENGVPTAVADPEIKDSTNIEIEILPLQQDLLLVQQEEQTLSINNKRKSVEEGISTDRARPRFDGIATAV", "soluble on expression in E. coli": "not soluble"}
{"sequence": "MFFRCCMKIVQIIGGLGNQMFQFAFYLALKEKYVNVKLDTSSFGAYTHNGFELDKVFHVEYLKASIRERIKLSYQGSEIWIRVLRKLLKRKKTEYVEPYLCFDENAISLSCDKYYIGYWQSYKYFTNIEAAIRGQFHFSKVLSDKNEFIKKQMQNSNSVSLHVRLGDYVNNPAYSNICTSAYYNKAINIIQSKVSEPKFFVFSDDTVWCKDHLKIPNCHIIDWNNKEESYWDMCLMTYCKHNIIANSSFSWWGAWLNTNPERIVIAPGKWINDDRVQVSDIIPSDWICVLEHHHHHH", "soluble on expression in E. coli": "not soluble"}
{"sequence": "MAQVRKAHPKDLAAIARLSHQTLFLGREGPKVFPSETLWGALFVAPYLEAGCCNLVAEEEGRVVGYILGACADRPLALAFAKRLLWALPRLLLGRFGPPLPHLRYLLRLLRYPGPKAPKDRYPAHLHIAVDPEAQGHGVGKALLAAFLKCLREKGVPGVQLATTRANRAARGLYRAMGFRVYAKRASPFWAPYLGRPLIHEVWVRDLG", "soluble on expression in E. coli": "soluble"}
{"sequence": "MLGIHRYDENLPPDELARDYLERTLFVMERVKFHTLAHLDYPARYAKADFKANRDLIEKILVFLVKNEKALEINTAGLFKHGKPNPDYWIVEMYYDLGGRVVTIGSDAHESQHIGRG", "soluble on expression in E. coli": "soluble"}
{"sequence": "SKLVYRNLARNGPGSVKLVPEEEDDLWHAYNLIVPGDTLQSVTVRKVLREMASGGRDAERVRLKLEIVVESVDYDKEGSVLRVRGKNITENDHVKIGQFHTVELELKRQFTLTKELWDWLALDTIQQACDPTASADLAVILMQEGLAHLFLIGRSITVTRARIETSIPRKHGPAIAGYESALKKFFEHVLQVNEKCFLKEMIILMKPIWTDALLNLPTGFPEAY", "soluble on expression in E. coli": "soluble"}
{"sequence": "MTNDLIQLIDSLMVNIPAGEVVLRDDRIKKEWLVQIQPFLLAKYAVTMELYDAITNSTLNNFDKNHKPVVNISWNDAIAFCNVLSKKAGLKEYYSISDGGQIVKCNLDSNGYRLPSEAEWQYACKASTTGYTYGKLHDIAWYNENSNGEIHDVGQKEPNAWGLYDMLGNVWEWCYDLYDETVYGSYRIFRGGSWAETARGCGATCRRRSHPTFHIDDLGFRLARSILEHHHHHH", "soluble on expression in E. coli": "soluble"}
{"sequence": "MSLRTIVFDVDDTLYDQQQPFRNAMTKIFPNVATEDMHELYLRFRHHSDETFPKVLANEWSLDFMRFFRMNETLKDLNYPGISQEEGKIFQQVYEEELDNITMHPEVTKLLDTLQEKEIPMGIITNGPTDHQFKKVKQLNIEKWVPSQNIIISQSTGFQKPEKEIFDLACNQFCMEPEHTLYVGDSYDNDIVGARNGGWHSLWFNHRSRELPSCQPASHLAEVTCFTELCPTVEKLFNLEGHHHHHH", "soluble on expression in E. coli": "soluble"}
{"sequence": "MSLDIIIVGSGAGGLTTASNIKKHDKNAKVTVITSDNYIAYSPCAIPYVIGEEIADFESIIMHTPEDYKAKGIDVIVEAEVLDVVSDENKIIYKKDATETELKYDNLVLATGGTPFVPPIEGVTLGGVFKVRTIEDGRKITEWAKDTKNAVVAGAGAIGIEIAFGLKELGLDVTVVEMVPQVFPRALDPDMAETVQKYLEEQGIKVILEKPVGKIIGNDKVESVLVGEETIPAEMVIMSTGVRSNIELAKRAGCEIGRWAVLTNEKMQTSIPNIYAVGDCVEVIDAITMQNTLSPFGTTAVRQGKVAAKTIANIEAEIKPVLNSMVSKIGKLEIGGTGMTETAAKMNGIEIVLGYSKALTRARYYPGGKPIYIKMVADKNTKKIIGCQIISEERVAERVDAMSVAIFNGMTVEELANQEFCYAPPVSMVIDPIVFAAEDTLDKEGHHHHHH", "soluble on expression in E. coli": "soluble"}
